Experimental data from patent US20110271408A1 (University of California, published 2011).

Target: T1, HAB1-GAL4 AD (Gal4 activation domain (AD)-PP2C fusion protein encoded by pAD-HAB1) (UniProt Q9CAJ0 1-511, limits assumed)
T1 construct: Prey of the yeast two-hybrid assays; also called HAB1-AD
T1 sequence (looked up): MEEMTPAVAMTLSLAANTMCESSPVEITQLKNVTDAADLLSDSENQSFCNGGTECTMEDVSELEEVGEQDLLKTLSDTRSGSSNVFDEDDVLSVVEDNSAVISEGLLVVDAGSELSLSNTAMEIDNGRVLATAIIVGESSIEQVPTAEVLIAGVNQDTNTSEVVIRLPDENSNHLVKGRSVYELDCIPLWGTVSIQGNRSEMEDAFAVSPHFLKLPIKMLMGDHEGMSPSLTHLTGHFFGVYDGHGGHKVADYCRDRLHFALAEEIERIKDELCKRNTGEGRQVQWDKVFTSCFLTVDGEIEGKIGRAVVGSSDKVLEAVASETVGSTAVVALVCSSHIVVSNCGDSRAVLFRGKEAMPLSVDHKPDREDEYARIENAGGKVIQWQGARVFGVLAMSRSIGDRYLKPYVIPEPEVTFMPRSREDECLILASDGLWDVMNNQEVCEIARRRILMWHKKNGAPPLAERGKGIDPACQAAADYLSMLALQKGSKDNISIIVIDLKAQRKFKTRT
Assay: yeast two-hybrid X-gal staining on increasing concentrations of fenhexamid (Y190 pAD-HAB1)

binding result: no binding
B1: PYL2 K64R, Y124H, M164I mutant, GAL4 BD fusion (pBD-PYL2) (receptor)
chain: MSSSPAVKGLTDEEQKTLEPVIKTYHQFEPDPTTCTSLITQRIHAPASVVWPLIRRFDNPERYRHFVKRCRLISGDGDVGSVREVTVISGLPASTSTERLEFVDDDHRVLSFRVVGGEHRLKNHKSVTSVNEFLNQDSGKVYTVVLESYTVDIPEGNTEEDTKIFVDTVVKLNLQKLGVAATSAPMHDDE
